These results are taken from a protein production outcome set (Wang et al. 2014).

The series in a line: label from the status in PepcDB records.

“MASTDYHVDLTNCDREPIHIPGYIQPHGCLIACDNAMRMVLRHSENCGELLGLEGDLNGRTAEDVLGKKLVHDLRNALTVTGRTTRPAMLPAMETSDGRSFDISLHRYKSTTIIEFEPSGSDAQPLGTARKMVDRIREADSVESLISRTTRLVKATLGYDRVMIYRFQEDGAGKVVSEAKQPELESFLGQYFPASDIPQQARALYLKNTLRIISDASGTRIPVLPAVDVSGEPLDLSYAHLRSVSPIHCEYLRNMGVAASMSISVIVDGALWGLIACHHYSPRVLSMPVRIAAEMFGEFFSMHLQVLKQKRRLDTINHAHAALDRFLRLAAHHANIEELLVDSFQDFADLMPCDGVGLWVGNNWHGHGATPPHDAIPRLARFVASASEGRVWATHALSQAIPEAEIYAGTAAGMLAIPLSQVKSDYLLFFRKEIVQNLNWAGNPEKSYETGPMGDRLTPRKSFAIWKETVRLQAQPWSEADREIAEAARIALVEVAFHHSELMAGERERAEVRQRMLNEELNHRVKNVLAIIKSLVGNPSQEGKTLQEYVTALKGRIQALSFAHDQIIRGEGGGALRDLLEAELSPHRSPETTVKLEGPQITLDSRAFSVMALVLHELATNAAKYGALSQNGGQLHVRWDVNENRDCEISWRETLLTTLPAPSRAGFGTALISRSIPYDLGGRSTIRYLPNGLEAEILLPFRHVSSVSAAFETKTEAETLPQPRRYNREEPLKVLLVEDQMLIAMDVENMLEDNGIKAIETATSSAMAIEKLKTYLPDVAILDINLGSDTSIPVARELHRRGIPFLFATGYADGSMVPDEFGAVPVIRKPYDEDALMAGIGVLVGDTERV”: the protein production entry is recorded as “failed”. As for “MASVNSPIRTFLKPLLFKLFGKNVYARFQFYAKIKDIDKRLVEEKEMELLPYFLNKDSNSIDVGANYAYYTVGMSKLSKKVFAYEPIPFTYKVCKMLLKHYNCANVDLFAQGVGEKNEIKRFNVPVVDFGGISAGQAHMADRNNELKGKEQHYQFSKNEAYDCTVVSLDAAITDITPISFVKMDIEGAEYFALKGMQQLLLKHKPVILIEINPFFLTGFDIKENDLKNLIASHAYKTYIYSAELKKLQAFECAYFESNYILIPEEKIAQFNAIIE”, the protein production entry is “failed”.

Regarding “MASYHVSHDSYQSPGPSPLYQPIIEAPPPPYPPTRTRYQDYYGGYGQPHPPPLRPYRSDHEYYGDGEYVGCFPFLRSCLTTLCCCWFVEQCCFRSRY”, the protein production result was “not failed”.

As to “MATAALSAARPNRLSSASSDVPLHPLYLPTKLQFPSRKTQLWRSAAILLPTRRRCAPPRASSRADDSPPFDMSVETALKVLGVSEGASFDEILRAKKSILASRKDDPNAISQAEAAYDMLLMQSLNQRRAGKVVSNNIRYADVKSSNPLGTSTVTQWMKNPPVSVDMPSTSDLGIQAGVYGAMMVLTYVNGSSFESSGMPYAGADVPGLILASSFGASLYFMTKKKVKLGKAAALTAGGLVAGAVVGSAIETWLHVDVVPFLGLHSPAAVVSEFIVFSQFLVSLCLR”, the protein production entry is “failed”. The result for “MATAEAQIGVNRNLQKQDLSNLDVSKLTPLSPEVISRQATINIGTIGHVAHGKSTVVKAISGVQTVRFKNELERNITIKLERLSEKKIKNLLTSKQQRQQYEIKQRSMLRHLAELRRHSRFRRLCTKPASSSMPASTSSVDRRTTRRSTSQTSLSPSNSSGYGSVFGCEEHDVDKIPSLNGFAKLKRRRSSCVGAPTPNSKRSKNNMGVIAKRPPKGEYVVERIECVEMDQYQPVFFVKWLGYHDSENTWESLANVADCAEMEKFVERHQQLYEIYIAKITTELEKQLEALPLMENITVAEVDAYEPLNLQIDLILLAQYRAAGSRSQREPQKIGERALKSMQIKRAQFVRRKQLADLALFEKRMNHVEKPSPPIRVENNIDLDTIDSNFMYIHDNIIGKDVPKPEAGIVGCKCTEDTEECTASTKCCARFAGELFAYERSTRRLRLRPGSAIYECNSRCSCDSSCSNRLVQHGRQVPLVLFKTANGSGWGVRAATALRKGEFVCEYIGEIITSDEANERGKAYDDNGRTYLFDLDYNTAQDSEYTIDAANYGNISHFINHSCDPNLAVFPCWIEHLNVALPHLVFFTLRPIKAGEELSFDYIRADNEDVPYENLSTAVRVECRCGADNCRKVLF” reads “failed”.
